Data as given in patent publication US6685912B2, “Post-labeling stabilization of radiolabeled proteins and peptides” (Rhomed Incorporated, priority 1996, dated 2004).

Columns and labels:
Type in all cases: physicochemical
[1] = Post-labeling stability of radiolabeled RC-160 (uncoupling of isotope) by TLC and RP-HPLC
Method: (§1) Radiolabeling kits were prepared using aseptic techniques, with each kit prepared in a 10 ml serum vial using a 2 ml liquid fill. The liquid fill contained 200 μg of RC-160 peptide in 45 mM sodium potassium tartrate, 10 mM potassium hydrogen phthalate buffer, pH 5.0, in 5 mM stannous tartrate with 1% maltose added as a freeze-drying excipient. Each kit contained a maximum of 1.19 μg of tin. After filling, the vials were lyophilized, the head space gas filled with nitrogen, and the vials stoppered and crimped. Lyophilized vials were then stored refrigerated at 2-80C. To label a kit, 4-5 ml of 188Re-perrhenate solution containing 10-100 mCi was added to the kits, and the kits then heated in a boiling water bath for 30-45 minutes. Following a brief cooling period, 2 ml of ascorbic acid for Injection, U.S.P., was added to the labeled kit through a 0.22 micron filter. Two types of parenteral ascorbate were used with similar results, Ascorbic Acid for Injection, U.S.P., 500 mg/2 ml, and Ascorvit™ (a preparation of ascorbate) 100 mg (Jenapharm, Germany). In this study, RC-160 was radiolabeled at pH 5.0 for 30 minutes at 90° C. and ascorbate was added postlabeling. The temperature effect is shown in FIGS. 2A and 2B: 19 minutes for 37° C. and 21 minutes for 900C. Also shown in FIG. 1B is an elution profile of Re-188-RC 160 from a C18 column using a step-gradient of acidified ethenol. […] FIG. 6. […] FIG. 7 and FIGS. 1A and 1B. […] Briefly, aliquots of 100 μl cysteine dissolved in phosphate buffer saline (pH 7.4 with 1 M NaOH) were diluted in separate microfuge tubes to result in a doubling dilution. 100 μl of Re188-RC-160 was added to each tube and mixed by inversion. The samples were incubated at 45 minutes at 37° C. or 90° C. A 10 μl aliquot of each sample was then spotted on heat-treated ITLC strip and chromatographed in PBS, pH 7.4 until the solvent was 0.5 cm from the strip top. The amount of displacement was expressed as % of total radioactivity at the solvent front. The results for two experiments conducted respectively at 37° and 90° C. are shown at FIG. 3. In a related manner, comparative biodistribution profiles of Re-188-RC-160 at 2 hours post injection into the tail vein of adult, female BALB/c mice (≈25 g weight) (n≧5/group) with each animal receiving 0.2 ml containing approximately 4 μCi. Selected organs as shown in FIG. 4 were resected and weighed and the associated radioactivity was determined as a percentage of injected dose pr gram of tissue. The percent dose from blood, bone and muscle was calculated assuming 7, 8.2 and 40% of total body weight for these tissues. 37° C. and 90° C. were the two temperatures at which radio labeling was performed.

[2] = Labeling efficiency of Re-188-RC-160 with ascorbic acid present during labeling (C18 SepPak, RP-HPLC, TLC)
Text: The results obtained by analytical RP-HPLC were confirmed by TLC studies and by isocratic elutions from C-18 SepPak columns. […] The RP-HPLC results were confirmed by TLC. […] The addition of ascorbate, or ascorbate/sulfite solutions, maximized the reduction of the peptide RC-160, which is present in excess, without compromising ^188Re-RC-160. The radiolabeling kit could be formulated with an excess of stannous ions and RC-160 to accommodate a variety of labeling situations. In the presence of ^188Re, the RC-160 and stannous ions interact to result in what is believed to be metal-cyclized ^188Re-RC-160. […] Since ^188Re is produced essentially carrier-free from a 188W/^188Re generator, it is hypothesized that excess stannous ions will reduce the RC-160 not complexed to ^188Re. […] The net result is a stable radiolabeled peptide with a very high specific activity.

[3] = Cysteine displacement of Re-188 from Re-188-RC-160 (ITLC); settings: addition of the ascorbate post-labeling
Method: Radiolabeling kits were prepared using aseptic techniques, with each kit prepared in a 10 ml serum vial using a 2 ml liquid fill. The liquid fill contained 200 μg of RC-160 peptide in 45 mM sodium potassium tartrate, 10 mM potassium hydrogen phthalate buffer, pH 5.0, in 5 mM stannous tartrate with 1% maltose added as a freeze-drying excipient. Each kit contained a maximum of 1.19 μg of tin. After filling, the vials were lyophilized, the head space gas filled with nitrogen, and the vials stoppered and crimped. Lyophilized vials were then stored refrigerated at 2-80C. To label a kit, 4-5 ml of 188Re-perrhenate solution containing 10-100 mCi was added to the kits, and the kits then heated in a boiling water bath for 30-45 minutes. Following a brief cooling period, 2 ml of ascorbic acid for Injection, U.S.P., was added to the labeled kit through a 0.22 micron filter. […] The amount of displacement was expressed as % of total radioactivity at the solvent front. […] Selected organs as shown in FIG. 4 were resected and weighed and the associated radioactivity was determined as a percentage of injected dose pr gram of tissue. The percent dose from blood, bone and muscle was calculated assuming 7, 8.2 and 40% of total body weight for these tissues. […]

[4] = Elution of Re-188-RC-160 from C18 SepPak columns (step-gradient of acidified ethanol) after adding post-labeling compounds
[5] = as above; remark: listed apart in the source
Method: FIG. 1B is an elution profile of Re-188-RC-160 from a C18-SepPak column using a step-gradient of acidified ethanol.
as §1

[6] = NO ASCORBATE during labeling, 20 mCi Re-188
[7] = PLUS ASCORBATE: 400 μg ascorbic acid introduced along with the Re-188, 20 mCi
[8] = post-labeling sodium bisulfite (1 mg/ml, pH 5.5)
[9] = post-labeling sodium sulfite (1 mg/ml, pH 7.4)
[10] = post-labeling Ascorbate for Injection, USP
[11] = post-labeling Ascorvit formulation
[12] = post-labeling ascorbate (50 mg/ml, pH 6.0)

Re-188-RC-160: RC-160, cyclic somatostatin analogue D-Phe-Cys-Tyr-D-Trp-Lys-Val-Cys-Trp-NH2, radiolabeled with 188Re using stannous kit
stabilization post-labeling ([1]; 50 mg/ml ascorbate compared with 250 mg/ml of ascorbate): yielded the same results
free rhenium in HPLC profile ([1]; 30 hours post-labeling, 65 mCi of 188Re, ascorbate added after labeling): very little free rhenium could be found
stability post-labeling ([1]; ascorbate not added, TLC, confirmed by RP-HPLC): stable for only up to two hours post-labeling
stability post-labeling (uncoupling of 188Re from the peptide) ([1]; post-labeling addition of ascorbate): essentially eliminate the uncoupling and stabilize
stabilization post-labeling ([1]; sodium sulfite (1 mg/ml pH 7.4), sodium bisulfite (1 mg/ml, pH 5.5), or mixtures of ascorbate with sodium sulfite, sodium bisulfite or EDTA): also effective in stabilizing
% of total radioactivity [2, 6]: 2.1%
% of total radioactivity, 10% ethanol [2, 6]: 0.9%
% of total radioactivity, 85% ethanol [2, 6]: 97.0%
% of total radioactivity [2, 7]: 1.4%
% of total radioactivity, 10% ethanol [2, 7]: 52.4%
% of total radioactivity, 85% ethanol [2, 7]: 46.2%
Re-peptide bond strength (cysteine displacement) [3]: not altered
% of total radioactivity assayed, 80-100% ethanol fraction ([4]; post-labeling SALINE): 4.0%
% of total radioactivity assayed, 40-60% ethanol fraction [4, 8]: 94.0%
% of total radioactivity assayed, 80-100% ethanol fraction [4, 8]: 1.8%
% of total radioactivity assayed, retained on column [4, 8]: 3.3%
% of total radioactivity assayed, 40-60% ethanol fraction [4, 9]: 35.8%
% of total radioactivity assayed, 80-100% ethanol fraction [4, 9]: 3.8%
% of total radioactivity assayed, 0-20% ethanol fraction [5, 10]: 0.7%
% of total radioactivity assayed, 40-60% ethanol fraction [5, 10]: 91.5%
% of total radioactivity assayed, 80-100% ethanol fraction [5, 10]: 1.3%
% of total radioactivity assayed, retained on column [5, 10]: 6.6%
% of total radioactivity assayed, 0-20% ethanol fraction [5, 11]: 1.0%
% of total radioactivity assayed, 40-60% ethanol fraction [5, 11]: 94.0%
% of total radioactivity assayed, 80-100% ethanol fraction [5, 11]: 1.8%
% of total radioactivity assayed, retained on column [5, 11]: 3.3%
% of total radioactivity assayed, 0-20% ethanol fraction ([5]; post-labeling SALINE): 0.8%
% of total radioactivity assayed, 40-60% ethanol fraction ([5]; post-labeling SALINE): 85.4%
% of total radioactivity assayed, retained on column ([5]; post-labeling SALINE): 9.7%
% of total radioactivity assayed, 0-20% ethanol fraction [5, 12]: 0.7%
% of total radioactivity assayed, 40-60% ethanol fraction [5, 12]: 96.4%
% of total radioactivity assayed, 80-100% ethanol fraction [5, 12]: 0.9%
% of total radioactivity assayed, retained on column [5, 12]: 1.8%
% of total radioactivity assayed, 0-20% ethanol fraction [5, 8]: 1.0%
% of total radioactivity assayed, 0-20% ethanol fraction [5, 9]: 7.0%
% of total radioactivity assayed, retained on column [5, 9]: 3.5%
